# According to article PMC9798103 (The Journal of Cell Biology, 2022):
# B1: N-terminal half of C. elegans RHGF-1 (RHGF-1-N) (domain or fragment)
# chain: MRSYEFVTNTPLKLDRHKVYLVDDVAVTRTVPLSQPLSPSTASSSYNMIERCVVVQRQPDGFGLTVNSEFPVYVHTLKQDGAAYCAGVRQGDRIVKVNGMSVSPNNHKEVLQMISNGHNVALTLLGKPPDPISNISFPNQQVEQKIHIADPVLIEASSKSWRQRRNELLGQMVAEERRNVEGLRESSQNGEKIDRALKRIVSLQSQLKQLKPESIISDSQKSLTNLNMDIDSDEEENDVVYLPESQGGPFSNLAELKTHPAHLAVFINYLLLHGNPSSLFFYLITDAYQSAYGTAKEFRRWAFEIFSTFIIPNSPMCIPNSNQSVIQPIDKIMCMTAEHIGDSDTDTLKRIFVPGRQRAVTDINMYLNDFRQKKQLGGQVSESTNQLTHMVRGDMTMEHRVGEQMLFRCLEQCSNSTDFDSCEIRTQSIISSLATVIKIVLGKTSSSSNEKMLDKFPQFMARDKPPGKSRKLPANIKNRIQVKGHSFSINSVNTVHYCYQCRDAIWGMQPWIYFCSNCDVKVHPHCTSALTDACYPVTQSKQKSKSRLSGLIGRSDANDDEDSGSNARHEQPNVKSTSSDSGIGGEHNMDRGLVSRSHSMRYRVATLPQSLSEDKVSIPSSKRDRSVTPSWQRST
# Target: F-actin (polymerised from Ca2+-ATP G-actin of rabbit skeletal muscle) (rabbit, UniProt P68135 1-377)
# Test: co-sedimentation
binder,measurement,value
B1,Kd,5.25 µM
